# Measured values published in article doi:10.1101/157495 (bioRxiv, 2017).
# B1: cyclohexadienyl dehydratase from Pseudomonas aeruginosa (PaCDT) (enzyme, UniProt Q01269 26-268, looked up)
# chain: QESRLDRILESGVLRVATTGDYKPFSYRTEEGGYAGFDVDMAQRLAESLGAKLVVVPTSWPNLMRDFADDRFDIAMSGISINLERQRQAYFSIPYLRDGKTPITLCSEEARFQTLEQIDQPGVTAIVNPGGTNEKFARANLKKARILVHPDNVTIFQQIVDGKADLMMTDAIEARLQSRLHPELCAVHPQQPFDFAEKAYLLPRDEAFKRYVDQWLHIAEQSGLLRQRMEHWLEYRWPTAHGK
# Target: the molecule itself
# Test: SEC
protein,measurement,value
B1,stoichiometry N,3
